These results are taken from publication PMC10702835, “Recognition of centromere‐specific histone Cse4 by the inner kinetochore Okp1‐Ame1 complex” (EMBO Reports, 2023).

Test [1] concerns Okp1‐Ame1. Kind of test: GST pulldown, Okp1-Ame1. The class given is binding, Saccharomyces cerevisiae. Particulars: glutathione agarose, 4°C, 1 h, 20 mM Tris, pH 8.5, 200 mM NaCl, 1 mM TCEP; SDS-PAGE. The protocol:
(§1) Figure 3 Biochemical investigation of Okp1‐Ame1‐Cse4^END binding and disruptive point mutations • A GST pulldown assay for Cse4 binding. The indicated COMA complex proteins were tested for their association with immobilized GST‐Cse4^END. • B Fluorescence polarization assay for quantification of Cse4 binding affinities (n = 3 independent replicates). FITC‐labeled Cse4^END peptide was incubated with increasing concentrations of the indicated protein complexes. See also Table 1. • C, D GST pulldown assays as in panel A. Cse4^END and its mutants (L41D, L42D, or L41,42A) were tested in panel C. The indicated Okp1‐Ame1 complexes were tested for their association with GST‐Cse4^END in panel D. Source data are available online for this figure.
(§2) GST‐Cse4^28‐60 was mixed with Okp1‐Ame1, COMA, COMA‐Nkp1‐Nkp2, or Okp1^125‐275 – Ame1^124‐231 and the mixed samples were incubated with glutathione agarose resin at 4°C for 1 h in binding buffer containing 20 mM Tris, pH 8.5, 200 mM NaCl and 1 mM TCEP. Resin was washed at least three times with the same buffer to remove unbound protein, and bound protein then eluted with glutathione. Samples of input and eluate were collected for analysis by SDS–PAGE.

Test [2] relates to COMA complex. Kind of test: GST pulldown, COMA. In kind it is binding, Saccharomyces cerevisiae. Particulars: glutathione agarose, 4°C, 1 h, 20 mM Tris, pH 8.5, 200 mM NaCl, 1 mM TCEP; compared with COMA-Nkp1-Nkp2. As for the experimental part:
as §1, §2

Test [3] relates to COMA‐Nkp1‐Nkp2 complex. Kind of test: GST pulldown, COMA-Nkp1-Nkp2. Particulars: glutathione agarose, 4°C, 1 h, 20 mM Tris, pH 8.5, 200 mM NaCl, 1 mM TCEP; compared with COMA. The class given is binding, Saccharomyces cerevisiae. As for the experimental part:
as §1, §2

The subject of test [4] is minimal Okp1‐Ame1 complex (Okp1^125‐275‐Ame1^124‐231). Kind of test: GST pulldown, minimal Okp1-Ame1. Particulars: glutathione agarose, 4°C, 1 h, 20 mM Tris, pH 8.5, 200 mM NaCl, 1 mM TCEP. In kind it is binding, Saccharomyces cerevisiae. The protocol: Figure EV3 Further biochemical characterization of the Okp1‐Ame1‐Cse4^END interaction • Pulldown assay showing binding between the truncated Okp1‐Ame1 complex used for crystallography (Okp1^125‐275l‐Ame1^124‐231) and GST‐Cse4^END. • Recombinant proteins used for pulldowns in Fig 3 were tested for their association with GST to determine the level of non‐specific binding. Results of a GST pulldown assay are shown. • The minimal Okp1‐Ame1 complex used for crystallography was tested for its association with FITC‐Cse4^END in a fluorescence polarization experiment. The measured dissociation constant is ~750 nM (see Materials and Methods; n = 3 independent experiments). • GST‐Cse4^END and its mutants were tested for Okp1‐Ame1 binding. • Full‐length mutant Okp1‐Ame1 complex (EYAA or I195Y as indicated) was tested for its association with FITC‐Cse4^END. • Various Okp1‐Ame1 mutants (indicated above) were tested for binding to GST‐Cse4^END. • Various Okp1‐Ame1 mutants were tested for Cse4^END binding as in panel F. Source data are available online for this figure.
GST‐Cse4^28‐60 was mixed with Okp1‐Ame1, COMA, COMA‐Nkp1‐Nkp2, or Okp1^125‐275 – Ame1^124‐231 and the mixed samples were incubated with glutathione agarose resin at 4°C for 1 h in binding buffer containing 20 mM Tris, pH 8.5, 200 mM NaCl and 1 mM TCEP. […]

Test [5] deals with T1, Okp1‐Ame1 (WT, full length) with 10 μM Nkp1‐Nkp2 (S. cerevisiae (budding yeast), UniProt P53298 1-406; P38313 1-324; Q12493 1-238; Q06162 1-153).
T1 construct: Okp1, budding yeast, full length; Ame1, budding yeast, full length; Nkp1, budding yeast, full length; Nkp2, budding yeast, full length; the methods call it a titrated complex (Okp1‐Ame1 with Nkp1/2); also called Okp1‐Ame1 W(T) + 10 μM Nkp1‐Nkp2; Okp1‐Ame1 with Nkp1/2; source: E. coli, purified heterodimers Okp1‐Ame1 and Nkp1‐Nkp2, mixed; copies: + + +
Nature of the test: fluorescence polarisation; as a2 (20 nM FITC‐Cse4^28‐60, full-length Okp1‐Ame1 titrated, 200 mM NaCl) with 10 μM Nkp1‐Nkp2 added in excess. The conditions noted are these: both partners purified. (In general: In fluorescence polarisation assays a small probe gives low polarisation when free and higher when bound to something large.)

Test [6] addresses T2, minimal Okp1^125‐275 – Ame1^124‐231 heterodimer (S. cerevisiae (budding yeast), UniProt P53298 125-275; P38313 124-231).
T2 construct: Okp1, budding yeast, residues 125-275; Ame1, budding yeast, residues 124-231; no tag; also called truncated Okp1‐Ame1 complex; minimal Okp1‐Ame1 complex used for crystallography; source: E. coli Rosetta 2 (pLysS), pet-Duet co-expression, purified (TALON, TEV cleavage, ion exchange, gel filtration); not shown: His6, N-terminal, cleaved; copies: 1 + 1
Kind of test: fluorescence polarisation; 20 nM FITC‐Cse4^28‐60, truncated Okp1‐Ame1 titrated; 100 mM HEPES pH 7.5, 600 mM NaCl, 1 mM TCEP; 30 min at room temperature; 20 μM points left out of the fit. The conditions noted are these: both partners purified.

Test [7] addresses T3, Okp1‐Ame1 heterodimer, full length, wild type (S. cerevisiae (budding yeast), UniProt P53298 1-406; P38313 1-324).
T3 construct: Okp1, inner kinetochore (Ctf19c) protein of budding yeast, full length; Ame1, inner kinetochore (Ctf19c) protein of budding yeast, full length; also called Okp1‐Ame1 (WT); FL; copies: 1 + 1
Kind of test: fluorescence polarisation; 20 nM FITC‐Cse4^28‐60, full-length Okp1‐Ame1 titrated; 100 mM HEPES pH 7.5, 200 mM NaCl, 1 mM TCEP; 30 min at room temperature; one site – total binding fit; triplicate. The conditions noted are these: both partners purified.

For test [8], the target named is T4, Okp1(EYAA)‐Ame1, full length (S. cerevisiae (budding yeast), UniProt P53298 1-406; P38313 1-324, E235A | Y238A).
T4 construct: Okp1, budding yeast, full length, with E235A and Y238A; Ame1, budding yeast, full length; also called okp1‐E235,Y238A; okp1‐E235A,Y238A; source: recombinant; copies: 1 + 1
Described as above. The conditions noted are these: both partners purified.

Test [9] has as its target T5, Okp1‐Ame1(I195Y), full length (S. cerevisiae (budding yeast), UniProt P53298 1-406; P38313 1-324, I195Y).
T5 construct: Okp1, budding yeast, full length; Ame1, budding yeast, full length, with I195Y; source: recombinant; copies: 1 + 1
The description is as above. Particulars: both partners purified.

The target of test [10] is T6, Okp1^125‐275 (S. cerevisiae (budding yeast), UniProt P53298 125-275).
T6 construct: Okp1, budding yeast, residues 125-275; Single chain of m2, written for the pairwise contacts of the crystal structure; also called Okp1 (chain of the crystallised minimal heterodimer); source: E. coli Rosetta 2 (pLysS), co-expressed with Ame1^124‐231, purified; not shown: His6, N-terminal, cleaved
Nature of the test: crystal structure; Okp1^125‐275 – Ame1^124‐231 mixed with Cse4^28‐60 peptide 1:1.3; hanging drop, 18°C, 19% PEG 8000, 0.55 M lithium sulfate; 1.8 Å, space group P4(2)2(1)2. Particulars: both partners purified.

For test [11], the target named is T2, minimal Okp1^125‐275 – Ame1^124‐231 …. The description is as above. Particulars: both partners purified.
The target of test [12] is T7, Ame1^124‐231 (S. cerevisiae (budding yeast), UniProt P38313 124-231).
T7 construct: Ame1, budding yeast, residues 124-231; no tag; Single chain of m2, written for the pairwise contacts of the crystal structure; also called Ame1 (chain of the crystallised minimal heterodimer); source: E. coli Rosetta 2 (pLysS), co-expressed with Okp1^125‐275, purified
The test is described as above. The conditions noted are these: both partners purified.

In test [13] the target is T3, Okp1‐Ame1 heterodimer, full length, …. Kind of test: pull-down; GST‐Cse4^28‐60 (or GST) mixed with prey, held on glutathione agarose resin, 4°C 1 h, 20 mM Tris pH 8.5, 200 mM NaCl, 1 mM TCEP; eluted with glutathione; SDS–PAGE. Particulars: both partners purified.
Test [14] concerns the target T8, six‐protein COMA‐Nkp1‐Nkp2 complex (S. cerevisiae (budding yeast), UniProt P53298 1-406; P38313 1-324; Q02732 1-369; Q06675 1-368; Q12493 1-238; Q06162 …).
T8 construct: Okp1, budding yeast, full length; Ame1, budding yeast, full length; Ctf19, budding yeast, full length; Mcm21, budding yeast, full length; Nkp1, budding yeast, full length; Nkp2, budding yeast, full length; constructs as in Hinshaw & Harrison 2019; source: E. coli, purified heterodimers Okp1‐Ame1, Ctf19‐Mcm21 and Nkp1‐Nkp2; copies: + + + + +
Described as above. Particulars: both partners purified.

In test [15] the target is T2, minimal Okp1^125‐275 – Ame1^124‐231 …. Described as above. Particulars: both partners purified.
For test [16], the target named is T9, four‐protein COMA complex (Ctf19‐Okp1‐Mcm21‐Ame1) (S. cerevisiae (budding yeast), UniProt P53298 1-406; P38313 1-324; Q02732 1-369; Q06675 1-368).
T9 construct: Okp1, budding yeast, full length; Ame1, budding yeast, full length; Ctf19, budding yeast, full length; Mcm21, budding yeast, full length; constructs as in Hinshaw & Harrison 2019; source: E. coli, purified heterodimers Okp1‐Ame1 and Ctf19‐Mcm21; copies: + + +
The description is as above. Particulars: both partners purified.

Where no end group is shown, it is not given here. Bounds are passed on as bounds.

As usually defined, the Kd is the concentration at which binding is half-saturated. Low readings indicate tighter binding, high ones weaker binding.

T2 sequence (P53298 125-275, chain 1 of 2): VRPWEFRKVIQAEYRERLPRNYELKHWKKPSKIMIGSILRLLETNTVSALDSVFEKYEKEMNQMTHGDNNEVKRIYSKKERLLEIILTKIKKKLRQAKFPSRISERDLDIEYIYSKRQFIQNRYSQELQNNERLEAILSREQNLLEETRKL
T2 sequence (P38313 124-231, chain 2 of 2): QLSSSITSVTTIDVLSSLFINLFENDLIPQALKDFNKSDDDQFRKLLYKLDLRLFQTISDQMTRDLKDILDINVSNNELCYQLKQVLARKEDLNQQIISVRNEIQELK
T3 sequence (P53298 whole entry, chain 1 of 2): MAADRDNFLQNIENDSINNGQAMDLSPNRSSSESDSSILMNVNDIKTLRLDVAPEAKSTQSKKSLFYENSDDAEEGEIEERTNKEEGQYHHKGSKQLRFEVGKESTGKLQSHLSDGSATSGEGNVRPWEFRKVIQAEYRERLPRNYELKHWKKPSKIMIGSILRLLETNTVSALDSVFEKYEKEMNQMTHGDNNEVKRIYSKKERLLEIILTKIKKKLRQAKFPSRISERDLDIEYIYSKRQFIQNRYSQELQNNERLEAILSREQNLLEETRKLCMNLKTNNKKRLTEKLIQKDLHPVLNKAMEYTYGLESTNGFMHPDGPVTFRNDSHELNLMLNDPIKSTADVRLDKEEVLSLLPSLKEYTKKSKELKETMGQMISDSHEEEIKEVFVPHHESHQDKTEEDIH
T3 sequence (P38313 whole entry, chain 2 of 2): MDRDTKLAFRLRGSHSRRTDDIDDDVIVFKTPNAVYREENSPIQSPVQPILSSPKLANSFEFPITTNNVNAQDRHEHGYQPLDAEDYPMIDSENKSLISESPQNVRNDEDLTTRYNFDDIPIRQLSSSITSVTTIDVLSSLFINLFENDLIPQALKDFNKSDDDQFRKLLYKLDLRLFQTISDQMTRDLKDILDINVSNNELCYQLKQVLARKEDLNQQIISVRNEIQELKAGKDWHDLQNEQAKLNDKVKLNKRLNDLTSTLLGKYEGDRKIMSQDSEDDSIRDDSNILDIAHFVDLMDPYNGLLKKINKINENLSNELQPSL
T6 sequence (P53298 125-275): as the sequence (P53298 125-275, chain 1 of 2) above
T4 sequence (P53298 whole entry E235A/Y238A, chain 1 of 2): as the sequence (P53298 whole entry, chain 1 of 2) above, with E235A, Y238A counted along it
T4 sequence (P38313 whole entry, chain 2 of 2): as the sequence (P38313 whole entry, chain 2 of 2) above
T7 sequence (P38313 124-231): as the sequence (P38313 124-231, chain 2 of 2) above
T5 sequence (P53298 whole entry, chain 1 of 2): as the sequence (P53298 whole entry, chain 1 of 2) above
T5 sequence (P38313 whole entry I195Y, chain 2 of 2): as the sequence (P38313 whole entry, chain 2 of 2) above, with I195Y counted along it
T9 sequence (P53298 whole entry, chain 1 of 4): as the sequence (P53298 whole entry, chain 1 of 2) above
T9 sequence (P38313 whole entry, chain 2 of 4): as the sequence (P38313 whole entry, chain 2 of 2) above
T9 sequence (Q02732 whole entry, chain 3 of 4): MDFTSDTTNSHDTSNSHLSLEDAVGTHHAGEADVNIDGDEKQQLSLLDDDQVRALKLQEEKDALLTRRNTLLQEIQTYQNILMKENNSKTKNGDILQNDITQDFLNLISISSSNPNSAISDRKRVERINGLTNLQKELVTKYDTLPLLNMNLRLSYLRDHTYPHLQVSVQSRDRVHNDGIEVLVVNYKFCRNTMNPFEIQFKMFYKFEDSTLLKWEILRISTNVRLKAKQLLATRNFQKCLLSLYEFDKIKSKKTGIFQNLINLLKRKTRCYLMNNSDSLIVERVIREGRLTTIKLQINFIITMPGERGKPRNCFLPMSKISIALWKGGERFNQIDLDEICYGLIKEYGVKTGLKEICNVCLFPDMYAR
T9 sequence (Q06675 whole entry, chain 4 of 4): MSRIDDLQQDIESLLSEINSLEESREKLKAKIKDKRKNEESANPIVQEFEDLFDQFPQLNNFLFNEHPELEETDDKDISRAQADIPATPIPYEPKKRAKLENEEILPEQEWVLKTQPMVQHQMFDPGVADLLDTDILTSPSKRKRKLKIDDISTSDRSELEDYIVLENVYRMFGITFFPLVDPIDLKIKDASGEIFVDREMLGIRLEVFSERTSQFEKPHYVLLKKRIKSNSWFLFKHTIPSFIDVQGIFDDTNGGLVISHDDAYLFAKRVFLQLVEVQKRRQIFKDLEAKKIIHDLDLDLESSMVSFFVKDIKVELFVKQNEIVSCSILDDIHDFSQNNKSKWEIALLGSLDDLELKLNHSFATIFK
T1 sequence (P53298 whole entry, chain 1 of 4): as the sequence (P53298 whole entry, chain 1 of 2) above
T1 sequence (P38313 whole entry, chain 2 of 4): as the sequence (P38313 whole entry, chain 2 of 2) above
T1 sequence (Q12493 whole entry, chain 3 of 4): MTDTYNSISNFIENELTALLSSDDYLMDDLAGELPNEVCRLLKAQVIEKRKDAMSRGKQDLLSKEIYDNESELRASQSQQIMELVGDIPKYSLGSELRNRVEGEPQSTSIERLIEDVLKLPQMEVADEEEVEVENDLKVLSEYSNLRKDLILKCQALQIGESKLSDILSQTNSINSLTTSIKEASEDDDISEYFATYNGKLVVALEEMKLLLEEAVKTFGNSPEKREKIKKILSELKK
T1 sequence (Q06162 whole entry, chain 4 of 4): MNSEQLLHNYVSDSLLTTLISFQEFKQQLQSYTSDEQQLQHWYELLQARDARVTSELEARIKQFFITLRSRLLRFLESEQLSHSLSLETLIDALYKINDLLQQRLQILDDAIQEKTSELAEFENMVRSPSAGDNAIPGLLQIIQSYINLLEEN

As for “GST‐Cse4^END: Cse4 residues 28–60 with TEV‐cleavable N‐terminal Glutathione S‐transferase tag (AGDQQSINDRALSLLQRTRATKNLFPRREERRR; not fully specified (N-terminus))”, the “binding in GST pulldown” value in [1] is on record as “bound Okp1‐Ame1”; in test [2], “equally well”; in test [3], “equally well”; in test [4], “preserved GST‐Cse4^END binding”.
With “cse4‐L41,42A: Cse4^END L41,42A mutant, GST fusion (AGDQQSINDRALSAAQRTRATKNLFPRREERRR; not fully specified (N-terminus))”, in [1], the “binding in GST pulldown” value is listed as “failed to bind”.
With “cse4‐L41D: Cse4^END L41D mutant, GST fusion (GST-TEV-Cse4^28-60(L41D)) (AGDQQSINDRALSDLQRTRATKNLFPRREERRR; not fully specified (N-terminus))”, in [1], the “binding in GST pulldown” value is reported as “failed to bind”.
The same measure, in the same setting: with “cse4‐L42D: Cse4^END L42D mutant, GST fusion (GST-TEV-Cse4^28-60(L42D)) (AGDQQSINDRALSLDQRTRATKNLFPRREERRR; not fully specified (N-terminus))” the entry was “failed to bind”.

B1: FITC‐Cse4^28‐60 peptide (peptide, UniProt P36012 28-60, looked up)
peptide: AGDQQSINDRALSLLQRTRATKNLFPRREERRR
modifications: not fully specified (N-terminus); also: FITC label, position not given here
notes: Cse4, S. cerevisiae, residues 28-60; also called FITC‐Cse4^END; FITC‐labeled Cse4^END peptide; source: synthetic peptide (Tufts University Core Facility)
Take B1: the Kd in test [5] was 133 nM; in [6], around 750 nM; in test [7], 152 nM; in [8], above 3000 nM; in test [9], above 3000 nM.

B2: Cse4^28‐60 peptide (Cse4^END peptide) (peptide, UniProt P36012 28-60, looked up)
peptide: B1 peptide
notes: Cse4, S. cerevisiae, residues 28-60 (residues 34-46 ordered in the crystal); also called minimal Cse4^END peptide; source: synthetic peptide (Tufts University Core facility)
Consider B2, for which the binding result in [10], in test [11] and in [12] was “binds” each time.

B3: GST‐Cse4^END (GST fusion of Cse4 residues 28–60) (domain or fragment, S. cerevisiae, UniProt P36012 28-60, looked up)
chain: B1 peptide
notes: Cse4, centromeric histone H3 variant of S. cerevisiae, Essential N-terminal Domain, residues 28-60; The GST tag is TEV-cleavable (pLIC vector) but was kept for the pull-downs; also called GST‐Cse4^28‐60; source: E. coli Rosetta 2 (pLysS), purified (glutathione agarose); not shown: GST, N-terminal, kept
In the case of B3, the binding result in test [13], in test [14], in [15] and in [16] was “binds” in each case.
